Laboratory results from the supplement of paper PMC10126150.
± gives the standard deviation of the averaged measurements.

Each sequence was assayed on ATP (assay: switch fluorescence ratio, 500 uM ATP over buffer (Cy3 cluster intensity, sum of 5 cycles each) (fold (ratio)); higher = stronger signal-on switching upon ATP binding; sequences stand for … in TCGTCGGCAGCGTCAGATGTGTATAAGAGACAGTTTTTTTTTTTTTTTTTTTTTTTTT…TC). Conditions: aptamer strand: ATP DNA aptamer (quencher-CACCTGGGGGAGTATTGCGGAGGAAGG + anchor), 100 nM annealed; ATP concentration: 500 uM.
How it was run: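 Per cluster, summed Cy3 intensity from the target cycles was divided by that from the buffer cycles to give the fluorescence ratio, then averaged per switch-domain sequence. Clusters outside 100-1000 RFU were excluded. The Cy3-labelled switching-strand clusters, on a modified Illumina MiSeq flow-cell, were annealed to 100 nM quencher-labelled ATP aptamer and imaged in selection buffer, then after 15 min with 500 uM ATP at 22 °C, for five cycles with NaOH stripping and re-annealing between them.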
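Note: ATP exposure 15 min at 22 °C before imaging.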

Row | Sequence | switch fluorescence ratio
1 | TGAGTGTGGG | 0.99 ± 0.03
2 | TGAGTGTGTA | 1.03 ± 0.042
3 | TGAGTTAAAG | 0.9876 ± 0.0082
4 | TGAGTTAAGT | 0.997 ± 0.01
5 | TGAGTTATCG | 0.968 ± 0.033
6 | TGAGTTCTTG | 0.982 ± 0.046
7 | TGAGTTGGAC | 1.08 ± 0.067
8 | TGAGTTGGAG | 0.9878 ± 0.002
9 | TGAGTTGGCT | 1.02 ± 0.014
10 | TGAGTTGGGA | 1.002 ± 0.0057
11 | TGAGTTGGTT | 0.973 ± 0.026
12 | TGAGTTGTTT | 0.985 ± 0.013
13 | TGAGTTTGCG | 1.01 ± 0.075
14 | TGAGTTTTAG | 0.972 ± 0.031
15 | TGAGTTTTTT | 0.982 ± 0.039
16 | TGATAAATGT | 1.13 ± 0.19
17 | TGATAACTCC | 1.03 ± 0.036
18 | TGATAAGGAG | 1.01 ± 0.012
19 | TGATACTGAT | 1.02 ± 0.058
20 | TGATAGATGC | 1.03 ± 0.025
21 | TGATAGGGAG | 0.982 ± 0.019
22 | TGATAGGGGA | 1.01 ± 0.047
23 | TGATAGTCCT | 1.03 ± 0.013
24 | TGATATACTG | 0.968 ± 0.026
25 | TGATATGTAA | 1.021 ± 0.0094

Row | Sequence | switch fluorescence ratio
26 | TGATATTGAG | 1 ± 0.045
27 | TGATATTTTT | 0.998 ± 0.028
28 | TGATCAGGAG | 0.9853 ± 0.0053
29 | TGATCATCTA | 0.993 ± 0.024
30 | TGATCGGCGG | 1.02 ± 0.05
31 | TGATCGGGGA | 1.028 ± 0.0063
32 | TGATCGGGTA | 1 ± 0.011
33 | TGATCTCTTT | 1.03 ± 0.049
34 | TGATCTGGGG | 1.01 ± 0.033
35 | TGATGAGATT | 0.999 ± 0.02
36 | TGATGAGCTC | 0.983 ± 0.02
37 | TGATGAGTCT | 1.03 ± 0.062
38 | TGATGATTTT | 0.945 ± 0.017
39 | TGATGCGGAT | 1.016 ± 0.0013
40 | TGATGCTTCA | 1 ± 0.037
41 | TGATGGAGAG | 0.97 ± 0.034
42 | TGATGGAGGC | 1.01 ± 0.013
43 | TGATGGCCTG | 0.986 ± 0.067
44 | TGATGGCGGG | 0.9917 ± 0.0042
45 | TGATGGCGGT | 1.04 ± 0.065
46 | TGATGGGCAG | 1.01 ± 0.047
47 | TGATGGGGAT | 1.03 ± 0.017
48 | TGATGGGGGA | 1.01 ± 0.03
49 | TGATGGGGTA | 1.04 ± 0.019
50 | TGATGGGTGC | 1.04 ± 0.045

Row | Sequence | switch fluorescence ratio
51 | TGATGGGTTA | 0.962 ± 0.029
52 | TGATGGTATA | 1.01 ± 0.025
53 | TGATGGTGGG | 0.979 ± 0.029
54 | TGATGGTGTC | 0.968 ± 0.011
55 | TGATGTCCGT | 0.997 ± 0.02
56 | TGATGTCGGG | 0.999 ± 0.034
57 | TGATGTGAAA | 0.977 ± 0.015
58 | TGATGTTGT | 1.005 ± 0.0071
59 | TGATTAAGGG | 0.9752 ± 0.0072
60 | TGATTACAGT | 1 ± 0.018
61 | TGATTAGGGG | 0.9948 ± 0.0096
62 | TGATTCAGTA | 0.974 ± 0.011
63 | TGATTCTAAT | 1 ± 0.042
64 | TGATTGAATG | 0.9785 ± 0.001
65 | TGATTGACGG | 0.975 ± 0.015
66 | TGATTGAGGA | 0.981 ± 0.027
67 | TGATTGATAT | 1.01 ± 0.012
68 | TGATTGCCCG | 0.9376 ± 0.0077
69 | TGATTGCTAT | 1.01 ± 0.039
70 | TGATTGGGCT | 1.03 ± 0.015
71 | TGATTGGGGA | 1.005 ± 0.0043
72 | TGATTGGGTT | 0.975 ± 0.022
73 | TGATTGGTTT | 1 ± 0.011
74 | TGATTGTGAA | 1 ± 0.024
75 | TGATTTAGAG | 0.998 ± 0.013

Row | Sequence | switch fluorescence ratio
76 | TGATTTAGTT | 0.989 ± 0.02
77 | TGATTTGCGA | 0.987 ± 0.02
78 | TGATTTTACC | 1.06 ± 0.015
79 | TGATTTTAGG | 0.9832 ± 0.0061
80 | TGATTTTCGT | 1 ± 0.044
81 | TGCAAAAGGT | 1.02 ± 0.087
82 | TGCAAAGGGG | 1.01 ± 0.029
83 | TGCAAGAGTG | 1.03 ± 0.011
84 | TGCAATCGGT | 1.22 ± 0.065
85 | TGCAATTACT | 3.21 ± 0.24
86 | TGCAATTGGT | 1.01 ± 0.016
87 | TGCACAAGAT | 1.02 ± 0.011
88 | TGCACCATTT | 1.02 ± 0.014
89 | TGCACGGGGG | 1.03 ± 0.013
90 | TGCACTGTTT | 1.01 ± 0.038
91 | TGCACTTTTA | 1.01 ± 0.02
92 | TGCAGAAAAT | 1.01 ± 0.036
93 | TGCAGACGGT | 1.2 ± 0.14
94 | TGCAGCTGGT | 0.98 ± 0.021
95 | TGCAGGGTTT | 0.9906 ± 0.0082
96 | TGCAGGTTAC | 1.12 ± 0.015
97 | TGCAGTAGTT | 1.012 ± 0.005
98 | TGCAGTCATG | 0.995 ± 0.03
99 | TGCAGTGATC | 1.11 ± 0.056
100 | TGCAGTGTGC | 1.01 ± 0.015

Row | Sequence | switch fluorescence ratio
101 | TGCAGTGTGG | 1.005 ± 0.0078
102 | TGCATAAATT | 0.9873 ± 0.0034
103 | TGCATAACGT | 1.02 ± 0.024
104 | TGCATCAATA | 1.03 ± 0.039
105 | TGCATCATTG | 0.988 ± 0.039
106 | TGCATGATTG | 0.967 ± 0.02
107 | TGCATGGGTG | 1.06 ± 0.039
108 | TGCATGTACA | 1.04 ± 0.037
109 | TGCATTAGGA | 1.02 ± 0.024
110 | TGCATTCGTT | 1.008 ± 0.009
111 | TGCATTGGGC | 1.03 ± 0.013
112 | TGCATTGGGG | 1 ± 0.024
113 | TGCCACGCTC | 1.06 ± 0.029
114 | TGCCACTCCT | 1.0495 ± 4.1e-05
115 | TGCCATAGG | 1.008 ± 0.0032
116 | TGCCATCCGA | 1.09 ± 0.054
117 | TGCCATGACG | 0.936 ± 0.046
118 | TGCCATTGGG | 1.08 ± 0.12
119 | TGCCCATAGT | 1.009 ± 0.003
120 | TGCCCCACGT | 1.17 ± 0.16
121 | TGCCGCAGAG | 1.6 ± 0.16
122 | TGCCGGGAGT | 1.41 ± 0.61
123 | TGCCGTAGGG | 1.04 ± 0.041
124 | TGCCGTAGTC | 0.9685 ± 0.0092
125 | TGCCGTTCTT | 1 ± 0.021

Row | Sequence | switch fluorescence ratio
126 | TGCCGTTTGG | 1 ± 0.03
127 | TGCCTATGGA | 1 ± 0.014
128 | TGCCTCTAGA | 1.1 ± 0.044
129 | TGCGAAAGAT | 1.05 ± 0.086
130 | TGCGAACCTT | 1.71 ± 0.12
131 | TGCGAAGGGT | 0.9856 ± 0.0046
132 | TGCGAAGGTT | 1.04 ± 0.069
133 | TGCGACGAGG | 1.04 ± 0.0011
134 | TGCGATGCGG | 0.979 ± 0.037
135 | TGCGCCCGTT | 1 ± 0.033
136 | TGCGCCGTTT | 1.01 ± 0.017
137 | TGCGCCTGGG | 1.03 ± 0.013
138 | TGCGCGAAAG | 0.98 ± 0.042
139 | TGCGCTTTTT | 1.03 ± 0.061
140 | TGCGGCTG | 1.05 ± 0.039
141 | TGCGGGAGGG | 1.26 ± 0.35
142 | TGCGGGGGGG | 1.03 ± 0.038
143 | TGCGGTAGGT | 0.991 ± 0.018
144 | TGCGGTGACC | 1 ± 0.014
145 | TGCGGTGTCG | 1.06 ± 0.083
146 | TGCGGTTATG | 1.07 ± 0.051
147 | TGCGGTTTTT | 0.998 ± 0.02
148 | TGCGTACTAT | 1.06 ± 0.1
149 | TGCGTAGGAA | 1.061 ± 0.0049
150 | TGCGTATTTT | 1.025 ± 0.0031

Row | Sequence | switch fluorescence ratio
151 | TGCGTCAGGC | 1.09 ± 0.045
152 | TGCGTTAAAA | 0.994 ± 0.042
153 | TGCGTTCAAG | 0.9721 ± 0.0056
154 | TGCGTTCGGC | 0.963 ± 0.041
155 | TGCGTTGCTA | 0.996 ± 0.038
156 | TGCTAACAGG | 1.022 ± 0.0078
157 | TGCTAGAACT | 0.972 ± 0.019
158 | TGCTAGGGTC | 0.994 ± 0.025
159 | TGCTAGGTCA | 0.969 ± 0.0059
160 | TGCTATGGGG | 1 ± 0.016
161 | TGCTATGGGT | 0.975 ± 0.023
162 | TGCTCCGTCG | 1.2 ± 0.039
163 | TGCTCCTTCT | 1.09 ± 0.011
164 | TGCTCTGGGG | 0.996 ± 0.015
165 | TGCTCTTTGG | 1 ± 0.025
166 | TGCTCTTTTT | 1 ± 0.019
167 | TGCTGGCGGC | 0.982 ± 0.03
168 | TGCTGGGATT | 1.02 ± 0.044
169 | TGCTGGGCTG | 1.01 ± 0.025
170 | TGCTGGGGAC | 0.992 ± 0.051
171 | TGCTGGGGGG | 0.981 ± 0.023
172 | TGCTGGGGTT | 0.9764 ± 0.0047
173 | TGCTGGTGTA | 1.02 ± 0.025
174 | TGCTGTACGA | 1.11 ± 0.012
175 | TGCTGTACGG | 1.01 ± 0.046

Row | Sequence | switch fluorescence ratio
176 | TGCTGTGGGA | 0.9689 ± 0.006
177 | TGCTGTGTAC | 1.084 ± 0.0095
178 | TGCTGTTCTG | 1.032 ± 0.0019
179 | TGCTTAAGCA | 0.982 ± 0.058
180 | TGCTTAGGTT | 0.988 ± 0.011
181 | TGCTTATGGT | 0.965 ± 0.029
182 | TGCTTCGGGA | 1.1288 ± 0.0008
183 | TGCTTCGTGC | 0.996 ± 0.012
184 | TGCTTCTCCA | 1.03 ± 0.036
185 | TGCTTGAGGG | 1.004 ± 0.0097
186 | TGCTTTACAT | 1.03 ± 0.014
187 | TGCTTTACGG | 1.009 ± 0.0082
188 | TGCTTTTCCG | 1.1 ± 0.07
189 | TGCTTTTGGT | 0.988 ± 0.022
190 | TGGAAAAATT | 1.03 ± 0.04
191 | TGGAAAGAAG | 1.02 ± 0.064
192 | TGGAAGAGGC | 1.47 ± 0.64
193 | TGGAAGGGTA | 0.9903 ± 0.0012
194 | TGGAAGGTAT | 0.9795 ± 0.0087
195 | TGGAAGGTTG | 0.9808 ± 0.0066
196 | TGGAATGGTG | 1.05 ± 0.015
197 | TGGAATTAGT | 0.986 ± 0.038
198 | TGGACAGGGT | 0.999 ± 0.017
199 | TGGACATGGT | 0.9856 ± 0.005
200 | TGGACCAGTT | 1.008 ± 0.0033
